Results as given in PMC2841647 (PLoS ONE, 2010).

Target: T1, native TrkB receptors in cortical neurons (Mus musculus, UniProt P15209)
T1 construct: cortical neurons naturally express TrkB receptors; endogenous in cells; host or cells: primary cortical neurons from E16 mouse embryos
Test: KIRA-ELISA (TrkB tyrosine phosphorylation) in primary cortical neurons
Type: cell-based
Conditions: cortical neurons, with or without 4 nM BDNF
Source text: The human recombinant TrkB receptor was fluorescently tagged at its C-terminus with the Enhanced cyan fluorescent protein (rhTrkB-ECFP) by cloning the full human TrkB sequence (kindly provided by G. M. Brodeur) into the pECFP-N1 expression vector (Clontech). For inducible expression, rhTrkB-ECFP was subcloned into the tetracycline-responsive (TetOn) vector pTRE2 (Clontech). Chinese Hamster Ovary cells stably expressing rhTrkB-ECFP (TetOn-rhTrkB cells), were produced by transfection of the pTRE2-rhTrkB-ECFP plasmid into CHO-K1 TetOn cells (Clontech) followed by clone selection in 0.25 mg/ml hygromycin B (Invitrogen) and 0.1 mg/ml geneticin (G418; Invitrogen). Resistant cells were selected based on both fluorescence intensity and KIRA-ELISA profile after an overnight incubation in presence of 1000 ng/ml doxycycline (Clontech). Cortical neurons were prepared and cultured from E16 mouse embryos as described previously. The nnr5 PC12-TrkA, nnr5 PC12-TrkB and nnr5 PC12-TrkC cells (kindly provided by M. V. Chao) are NGF non-responding mutant PC12 cells stably transfected with TrkA, TrkB and TrkC cDNA, respectively.
TrkB activity was quantified using the previously described KIRA-ELISA assay with slight modifications. Cortical neurons were seeded on polyornithin-coated flat-bottom 96-well culture plates (12×10^4 cells per well) and cultured eight days at 37°C in 5% CO2. TetOn-rhTrkB cells were seeded on flat-bottom 96-well culture plates (4×10^4 cells per well) and incubated overnight with 1000 ng/ml doxycycline (Figs. S1,S2) except when indicated. Fluorescence levels in TetOn-rhTrkB cells were verified before each assay. […] Assay was stopped by removing the medium on ice and membranes were solubilized using KIRA-ELISA solubilization buffer (NaCl 150 mM, Hepes 50 mM, Triton X-100 0.5%, thimerosal 0.01%, sodium orthovanadate 2 mM, supplemented with a cocktail of protease inhibitors) for 1 h at room temperature. Solubilized membranes were transferred for 2 h at room temperature onto ELISA microtiter plate (Nunc Maxisorp) pre-coated overnight at 4°C with appropriate antibodies [polyclonal anti-GFP (1∶5000, Clontech) for TetOn-rhTrkB, polyclonal anti-TrkB (1 µg/ml, Upstate) for cultured neurons and brain slices, for phosphorylation assays; monoclonal anti-GFP (1∶3000, Chemicon) for TetOn-rhTrkB, monoclonal anti-TrkB (1∶1000, BD Biosciences) for cultured neurons and brain slices, for total TrkB quantification]. […] Absorbance was read at 450 nm after addition of 3,3′,5′,5-tetramethyl-benzidine substrate (Sigma) and acidification with 1N hydrochloric acid.
Concentration-response and competition curves were obtained using an iterative least-squares method derived from that of Parker & Waud (1971). […] Concentration-response curves and Eadie-Hofstee plots were analyzed using two-way ANOVA. Significance over time in locomotor activity studies was given using two-way ANOVA followed by Bonferroni's post-hoc test. […] One-way ANOVA followed by post-hoc Dunnett's test was used to evaluate statistical significance compare to saline group in EPM and FST procedures. n represents the number of independent experiments.

T1 sequence (P15209 32-821): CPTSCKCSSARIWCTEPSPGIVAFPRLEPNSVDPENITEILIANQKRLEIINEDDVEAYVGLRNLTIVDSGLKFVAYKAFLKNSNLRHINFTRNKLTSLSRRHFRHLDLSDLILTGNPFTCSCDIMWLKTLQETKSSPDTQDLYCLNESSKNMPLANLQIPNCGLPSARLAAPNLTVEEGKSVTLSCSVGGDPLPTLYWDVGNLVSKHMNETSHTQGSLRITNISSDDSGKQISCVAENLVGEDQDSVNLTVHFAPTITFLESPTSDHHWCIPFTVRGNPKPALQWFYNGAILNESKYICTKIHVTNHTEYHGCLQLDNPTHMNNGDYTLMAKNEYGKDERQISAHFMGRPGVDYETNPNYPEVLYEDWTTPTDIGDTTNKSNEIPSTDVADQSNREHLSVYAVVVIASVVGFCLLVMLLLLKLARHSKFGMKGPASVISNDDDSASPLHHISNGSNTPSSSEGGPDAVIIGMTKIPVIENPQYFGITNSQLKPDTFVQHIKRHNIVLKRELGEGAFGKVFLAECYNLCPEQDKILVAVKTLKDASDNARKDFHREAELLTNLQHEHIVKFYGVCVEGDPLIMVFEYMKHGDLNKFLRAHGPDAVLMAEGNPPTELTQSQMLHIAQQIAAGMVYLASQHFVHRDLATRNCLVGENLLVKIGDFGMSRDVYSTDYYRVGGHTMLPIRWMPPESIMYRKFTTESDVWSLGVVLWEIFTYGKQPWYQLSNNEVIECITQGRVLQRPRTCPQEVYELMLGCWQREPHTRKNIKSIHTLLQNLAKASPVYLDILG

YGRKKRRQRRRCNPMGYTKEGC [tat-cyclotraxin-B]
TrkB inhibition compared with cyclotraxin-B: similarly to cyclotraxin-B
